Experimental data as given in article PMC12965321.

Molecular target: RING1 [the product of Sex combs extra (Sce) gene] (D. melanogaster (endogenous in embryos)) (UniProt Q9VB08)
Test: co-IP; nuclear extract of RYBP-KO, Siesta-Strep embryos (no RYBP), dialysed against 25 mM Hepes-KOH pH 7.6, 0.1 M KCl; anti-RING1 cross-linked to Dynabeads or Strep-Tactin Sepharose, 0.02% NP-40, overnight at 4°C; Western blot; compared with Siesta-Strep extract

Chain of UniProt Q9VB08 (Q9VB08 whole entry): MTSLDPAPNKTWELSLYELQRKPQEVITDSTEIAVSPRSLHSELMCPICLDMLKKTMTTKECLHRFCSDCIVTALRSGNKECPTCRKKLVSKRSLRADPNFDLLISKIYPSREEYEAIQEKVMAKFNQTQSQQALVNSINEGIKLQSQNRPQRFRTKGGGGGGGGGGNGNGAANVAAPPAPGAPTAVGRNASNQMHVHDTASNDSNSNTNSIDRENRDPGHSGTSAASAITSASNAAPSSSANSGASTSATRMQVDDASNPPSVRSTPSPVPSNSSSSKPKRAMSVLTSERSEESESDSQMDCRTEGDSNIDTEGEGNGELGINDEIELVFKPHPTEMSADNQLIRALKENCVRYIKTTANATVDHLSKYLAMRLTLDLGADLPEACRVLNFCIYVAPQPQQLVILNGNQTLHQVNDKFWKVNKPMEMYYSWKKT

fold reduction of coimmunoprecipitation without RYBP against extract with RYBP: > 6 fold
Substance: Twin-Strep-tagged and Myc-tagged Siesta protein (natural protein)
